Assay results reported in patent US10766960 (dated 2020).
Where two headings read alike, the source gives them in different places. Values belong to the binder of their own block, whether it stands above or below them.

How the values were obtained:
Test in all cases: SPR
FcgRIIa R [1] = biological target: T1, FcgRIIa R (human, UniProt P12318)
T1 chain: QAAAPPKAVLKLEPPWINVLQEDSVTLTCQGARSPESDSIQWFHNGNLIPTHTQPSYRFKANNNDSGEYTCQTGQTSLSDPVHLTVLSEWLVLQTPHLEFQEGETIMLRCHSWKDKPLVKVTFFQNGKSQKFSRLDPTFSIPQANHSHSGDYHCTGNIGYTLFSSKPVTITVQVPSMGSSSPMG

FcgRIIa H [2] = biological target: T2, FcgRIIa H (human, UniProt P12318)
T2 chain: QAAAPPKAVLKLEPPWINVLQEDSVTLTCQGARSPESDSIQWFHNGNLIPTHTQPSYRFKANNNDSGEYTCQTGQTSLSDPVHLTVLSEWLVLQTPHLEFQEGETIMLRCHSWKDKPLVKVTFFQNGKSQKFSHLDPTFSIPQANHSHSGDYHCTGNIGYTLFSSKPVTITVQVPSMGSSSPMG

FcgRIIIa V [3] = biological target: T3, FcgRIIIa V (human, UniProt P08637)
T3 sequence (P08637 17-208 F176V): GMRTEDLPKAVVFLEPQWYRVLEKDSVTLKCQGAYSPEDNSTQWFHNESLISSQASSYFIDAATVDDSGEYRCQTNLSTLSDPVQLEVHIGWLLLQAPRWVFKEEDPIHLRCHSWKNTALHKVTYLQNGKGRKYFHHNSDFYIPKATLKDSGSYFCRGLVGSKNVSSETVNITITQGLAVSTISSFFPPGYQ

FcgRIIb [4] = biological target: T4, FcgRIIb (human, UniProt P31994)
T4 chain: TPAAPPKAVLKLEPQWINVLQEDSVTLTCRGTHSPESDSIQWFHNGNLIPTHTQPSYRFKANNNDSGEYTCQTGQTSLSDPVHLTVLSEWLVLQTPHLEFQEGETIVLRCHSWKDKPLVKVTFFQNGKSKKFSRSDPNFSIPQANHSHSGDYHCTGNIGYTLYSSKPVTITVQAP

FcgRIIIa F [5] = biological target: T5, FcgRIIIa F (human, UniProt P08637)
T5 sequence (P08637 17-208): as the sequence (P08637 17-208 F176V) above, with V160F counted along it

FcgRIIIa F [6] = biological target: T5, FcgRIIIa F; remark: listed apart in the source
FcgRIIa R [7] = biological target: T1, FcgRIIa R
FcgRIa = biological target: T6, FcgRIa (human, UniProt P12314)
T6 chain: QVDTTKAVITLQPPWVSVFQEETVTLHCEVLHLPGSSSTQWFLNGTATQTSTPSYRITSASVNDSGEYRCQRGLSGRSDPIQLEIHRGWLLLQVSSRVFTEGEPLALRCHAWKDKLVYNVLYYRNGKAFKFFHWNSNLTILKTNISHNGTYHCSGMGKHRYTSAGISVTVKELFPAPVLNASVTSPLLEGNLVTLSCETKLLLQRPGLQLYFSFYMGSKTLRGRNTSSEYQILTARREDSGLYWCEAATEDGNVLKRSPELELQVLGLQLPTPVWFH

FcgRIIIa V [8] = biological target: T3, FcgRIIIa V; remark: listed apart in the source
FcgRIIa H [9] = biological target: T2, FcgRIIa H
FcgRIIb [10] = biological target: T4, FcgRIIb
FcgRIIIa F [11] = biological target: T5, FcgRIIIa F; remark: listed apart in the source

Kd (FcgRIIa R [1]): 850 nM
Kd (FcgRIIa H [2]): 8300 nM
Kd (FcgRIIIa V [3]): 53000 nM
B1: IL6R-BP208/IL6R-L (antibody)
chain 1: QVQLQESGPGLVKPSETLSLTCAVSGHSISHDHAWSWVRQPPGEGLEWIGFISYSGITNYNPSLQGRVTISRDNSKNTLYLQMNSLRAEDTAVYYCARSLARTTAMDYWGEGTLVTVSSASTKGPSVFPLAPSSKSTSGGTAALGCLVKDYFPEPVTVSWNSGALTSGVHTFPAVLQSSGLYSLSSVVTVPSSSLGTQTYICNVNHKPSNTKVDKKVEPKSCDKTHTCPPCPAPDLLGDDSVFLFPPKPKDTLMISRTPEVTCVVVDVSDEDGEVKFNWYVDGVEVHNAKTKPREEQYNSTYRVVSVLTVLHQDWLNGKEYKCKVSNKALPRPIEKTISKAKGQPREPQVYTLPPSRDELTKNQVSLTCLVKGFYPSDIAVEWESNGQPENNYKTTPPVLDSDGSFFLYSKLTVDKSRWQQGNVFSCSVMHEALHNHYTQESLSLSP
chain 2: not shown

Kd (FcgRIIb [4]): 1100 nM
Kd (FcgRIIIa F [5]): 4.1 nM
Kd (FcgRIIIa F [6]): 4.7 nM
B2: GpH7-TA7/GpH7-B78/GpL16-k0 (antibody)
chain 1: QVQLVQSGAEVKKPGASVTVSCKASGYTFTDYEMHWIRQPPGEGLEWIGAIDPKTGDTAYSESFQDRVTLTADKSTSTAYMELSSLTSEDTAVYYCTRFYSYTYWGQGTLVTVSSASTKGPSVFPLAPSSKSTSGGTAALGCLVKDYFPEPVTVSWNSGALTSGVHTFPAVLQSSGLYSLSSVVTVPSSSLGTQTYICNVNHKPSNTKVDKKVEPKSCDKTHTCPPCPAPEYLWGPSVFLFPPKPKDTLMISRTPEVTCVVVDVSHEDPEVKFNWYVDGVEVHNAKTKPREEQYNATYRVVSVLTVLHQDWLNGKEYKCKVSNKALPAPIEKTISKAKGQPREPQVYTLPPSRKELTKNQVSLTCLVKGFYPSDIAVEWESNGQPENNYKTTPPVLDSDGSFFLYSKLTVDKSRWQQGNVFSCSVMHEALHNRYTQKSLSLSP
chain 2: QVQLVQSGAEVKKPGASVTVSCKASGYTFTDYEMHWIRQPPGEGLEWIGAIDPKTGDTAYSESFQDRVTLTADKSTSTAYMELSSLTSEDTAVYYCTRFYSYTYWGQGTLVTVSSASTKGPSVFPLAPSSKSTSGGTAALGCLVKDYFPEPVTVSWNSGALTSGVHTFPAVLQSSGLYSLSSVVTVPSSSLGTQTYICNVNHKPSNTKVDKKVEPKSCDKTHTCPPCPAPELLGGPDVFLFPPKPKDTLMISRTPEVTCVVVDVSHEDPEVKFNWYVDGVEVHNAKTKPREEQYNSTYRVVSVLTVLHQDWLNGKEYKCKVSNKALPLPEEKTISKAKGQPREPQVYTLPPSRDELTKNQVSLTCLVKGFYPSDIAVEWESNGQPENNYKTTPPVLDSDGSFFLYSKLTVDKSRWQQGNVFSCSVMHEALHNHYTQESLSLSP
chain 3: DIVMTQSPLSLPVTPGEPASISCQASESLVHSNRNTYLHWYLQKPGQSPQLLIYKVSNRFSGVPDRFSGSGSGTDFTLKISRVEAEDVGVYYCSQNTHVPPTFGQGTKVEIERTVAAPSVFIFPPSDEQLKSGTASVVCLLNNFYPREAKVQWKVDNALQSGNSQESVTEQDSKDSTYSLSSTLTLSKADYEKHKVYACEVTHQGLSSPVTKSFNRGEC

Kd (FcgRIIa R [7]): 29 nM
Kd (FcgRIa): 0.098 nM
Kd (FcgRIIIa V [8]): 6.8 nM
Kd (FcgRIIa H [9]): 46 nM
Kd (FcgRIIb [10]): 380 nM
Kd (FcgRIIIa F [11]): 21 nM
B3: H240-Kn037/H240-Hl036/L73-k0 (antibody)
chain 1: QDQLVQSGAEVKKPGASVKVSCKASGFNIKDTYIQWVRQAPGQGLEWMGRIDPLRKQTKYREKFEGRVTITADTSTNTAYMELSSLRSEDTAVYYCVRSGREFDYWGQGTLVTVSSASTKGPSVFPLAPSSKSTSGGTAALGCLVKDYFPEPVTVSWNSGALTSGVHTFPAVLQSSGLYSLSSVVTVPSSSLGTQTYICNVNHKPSNTKVDKKVEPKSCDKTHTCPPCPAPELLAGPDVFLFPPKPKDTLMISRTPEVTCVVVDVSHEDPEVKFNWYVDGVEVHNAKTKPREEQYNSTYRVVSVLTVLHQDWLNGKEYKCKVSNKALPAPEEKTISKAKGQPREPQVCTLPPSRDELTKNQVSLWCLVKGFYPSDIAVEWESNGQPENNYKTTPPVLDSDGSFFLYSKLTVDKSRWQQGNVFSCSVMHEALHNHYTQKSLSLSP
chain 2: QDQLVQSGAEVKKPGASVKVSCKASGFNIKDTYIQWVRQAPGQGLEWMGRIDPLRKQTKYREKFEGRVTITADTSTNTAYMELSSLRSEDTAVYYCVRSGREFDYWGQGTLVTVSSASTKGPSVFPLAPSSKSTSGGTAALGCLVKDYFPEPVTVSWNSGALTSGVHTFPAVLQSSGLYSLSSVVTVPSSSLGTQTYICNVNHKPSNTKVDKKVEPKSCDKTHTCPPCPAPELLAGPDVFLFPPKPKDTLMISRTPEVTCVVVDVSHEDPEVKFNWYVDGVEVHNAKTKPREEQYNSTYRVVSVLTVLHQDWLNGKEYKCKVSNKALPAPEEKTISKAKGQPREPQVYTLPPSRCELTKNQVSLSCAVKGFYPSDIAVEWESNGQPENNYKTTPPVLDSDGSFFLVSKLTVDKSRWQQGNVFSCSVMHEALHNHYTQKSLSLSP
chain 3: DIQMTQSPSSLSASVGDRVTITCRASQDIHKYIAWYQQKPGQAPRLLIQYTSTLQPGVPSRFSGSGSGTDYTFTISSLQPEDIATYYCLQYEQLRTFGGGTKVEIKRTVAAPSVFIFPPSDEQLKSGTASVVCLLNNFYPREAKVQWKVDNALQSGNSQESVTEQDSKDSTYSLSSTLTLSKADYEKHKVYACEVTHQGLSSPVTKSFNRGEC
